Experimental data taken from EP4803542A2 (Sanofi Biotechnology, dated 2026).

Molecular target: T1, human IL-1R3 expressed on cells (SK-MEL-30 and other human cell lines) (human, UniProt Q9NPH3 21-570)
T1 construct: whole, on cells; also called hIL1R3; IL-1RAcP
T1 sequence (looked up): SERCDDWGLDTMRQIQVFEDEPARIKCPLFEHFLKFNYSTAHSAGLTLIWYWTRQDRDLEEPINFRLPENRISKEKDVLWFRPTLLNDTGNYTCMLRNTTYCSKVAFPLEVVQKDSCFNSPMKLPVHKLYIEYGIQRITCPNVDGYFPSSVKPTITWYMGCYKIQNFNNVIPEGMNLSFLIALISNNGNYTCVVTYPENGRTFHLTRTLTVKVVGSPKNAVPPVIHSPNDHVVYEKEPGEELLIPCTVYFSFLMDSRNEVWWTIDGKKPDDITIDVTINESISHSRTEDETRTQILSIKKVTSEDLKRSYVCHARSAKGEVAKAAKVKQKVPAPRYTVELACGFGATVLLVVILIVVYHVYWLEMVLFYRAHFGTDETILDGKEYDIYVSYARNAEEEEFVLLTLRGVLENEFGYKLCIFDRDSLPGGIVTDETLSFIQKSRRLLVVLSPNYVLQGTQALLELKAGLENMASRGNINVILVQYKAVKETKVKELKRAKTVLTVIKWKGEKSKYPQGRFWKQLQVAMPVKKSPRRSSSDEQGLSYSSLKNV
Experiment: flow cytometry on the high-IL-1R3-expressing cell line SK-MEL-30

EC50: 0.307 µg/mL
B1: MAB-16-0030, humanized anti-IL-1R3 IgG1-LALA antibody (antibody, V domains shown)
VH: EVQLEESGGRLVQPGTSLRLSCAVSGFSLSSYDMSWVRQAPGKGLEWVSTIYIGGTTAYASWPKGRFTISKTNSKNTLYLQMNSLRAEDTAVYFCARLQGANYYNSLALWGQGTLVTVSS
VL: DVQMTQSPSSLSASVGDRVTITCQASQSIYSFLSWYQQKPGQAPKLLIYAASDLESGVPSRFSGSGSGTDFTLTISSLQPEDFATYYCQCNYIIDYGAFGQGTKVVIKR
notes: Humanized IgG1 with L234A and L235A (IgG1-LALA); also called anti-hIL-1R3 antibody MAB-16-0030; IgG1-LALA version of MAB-16-0030
